The text below walks through data of publication PMC2779547.

The experiment deals with KcsA R64C-SL (potassium ion channel KcsA, R64C mutant, spin-labelled with MTSL) (UniProt P0A334). Put plainly: PELDOR.

One may read the stoichiometry N as a count of units in the complex or per binding partner.

On to “KcsA R64C-SL (potassium ion channel KcsA, R64C mutant, spin-labelled with MTSL) (from UniProt P0A334 1-160) (natural protein)”, for which the stoichiometry N stood at 4.
